The GI50 is the concentration giving 50% growth inhibition.

Consider 7 molecules from US12172986B2, “Splicing modulator antibody-drug conjugates and methods of use” (EISAI R&D MANAGEMENT CO., LTD., priority 2018, dated 2024).

The experiment relates to MOLP8 cells. Description: Cell viability, CD138-expressing MOLP8. As to conditions: anti-CD138 ADC; for GI50: read-out: GI50 (nM) (ADC). It is filed as cell-based.

Method: HCC1954 (American Type Culture Collection (ATCC)) breast ductal carcinoma cells were plated at 2000 cells/well in flat bottom 96-well tissue culture plates (Corning) in a total volume of 90 μL tissue culture medium supplemented with 10% fetal bovine serum (ThermoFisher Scientific). Cells were treated with a 3-fold serial dilution of compound from 200 nM to 0.03 nM. Each concentration was tested in triplicate. At the time of treatment, a plate of untreated cells was evaluated using CellTiter-Glo®2.0 Luminescent Cell Viability Assay according to the manufacturer's recommendations (Promega; #G9241). CellTiter-Glo® 2.0 reagent was added to the medium, incubated, and assayed on an EnVision Multilabel Reader (PerkinElmer). Values represent time zero (TO). […] Percentage growth inhibition was calculated as: [(T144-T0)/(C-TO)]×100 for concentrations for which T144>/=TO or [(T144-T0)/T0]×100 for concentrations for which T144<TO. The dose response curve plots were generated using Prism 7 (Graphpad) and fit using nonlinear regression analysis and the log(inhibitor) versus response-variable slope (four parameters).

B1: AB205-ADL1-D14 (conjugate)
heavy: QVQLQQSGSELMMPGASVKISCKATGYTFSNYWIQRPGHGLEWIGEILPGTGRTIYNEKFKGKATFTADISSNTVQMQLSSLTSEDSAVYYCARRDYYGNFYYAMDYWGQGTSVTVSSAKTTPPSVYPLAPGSAAQTNSMVTLGCLVKGYFPEPVTVTWNSGSLSSGVHTFPAVLQSDLYTLSSSVTVPSSTWPSETVTCNVAHPASSTKVDKKIVPRDCGCKPCICTVPEVSSVFIFPPKPKDVLTITLTPKVTCVVVDISKDDPEVQFSWFVDDVEVHTAQTQPREEQFNSTFRSVSELPIMHQDWLNGKEFKCRVNSAAFPAPIEKTISKTKGRPKAPQVYTIPPPKEQMAKDKVSLTCMITDFFPEDITVEWQWNGQPAENYKNTQPIMDTDGSYFVYSKLNVQKSNWEAGNTFTCSVLHEGLHNHHTEKSLSHSPG
light: DIQMTQSTSSLSASLGDRVTISCSASQGINNYLNWYQQKPDGTVELLIYYTSTLQSGVPSRFSGSGSGTDYSLTISNLEPEDIGTYYCQQYSKLPRTFGGGTKLEIKRADAAPTVSIFPPSSEQLTSGGASVVCFLNNFYPKDINVKWKIDGSERQNGVLNSWTDQDSKDSTYSMSSTLTLTKDEYERHNSYTCEATHKTSTSPIVKSFNRNEC
Take B1: the “LD50 (nM) (ADC)” value is given as more than 400 nM, the “Rmin (%) (ADC)” value is given as −74.008% and the GI50 is less than 0.061 nM.

B2: AB205-ADL5-D19 (conjugate)
heavy: QVQLQQSGSELMMPGASVKISCKATGYTFSNYWIQRPGHGLEWIGEILPGTGRTIYNEKFKGKATFTADISSNTVQMQLSSLTSEDSAVYYCARRDYYGNFYYAMDYWGQGTSVTVSSAKTTPPSVYPLAPGSAAQTNSMVTLGCLVKGYFPEPVTVTWNSGSLSSGVHTFPAVLQSDLYTLSSSVTVPSSTWPSETVTCNVAHPASSTKVDKKIVPRDCGCKPCICTVPEVSSVFIFPPKPKDVLTITLTPKVTCVVVDISKDDPEVQFSWFVDDVEVHTAQTQPREEQFNSTFRSVSELPIMHQDWLNGKEFKCRVNSAAFPAPIEKTISKTKGRPKAPQVYTIPPPKEQMAKDKVSLTCMITDFFPEDITVEWQWNGQPAENYKNTQPIMDTDGSYFVYSKLNVQKSNWEAGNTFTCSVLHEGLHNHHTEKSLSHSPG
light: DIQMTQSTSSLSASLGDRVTISCSASQGINNYLNWYQQKPDGTVELLIYYTSTLQSGVPSRFSGSGSGTDYSLTISNLEPEDIGTYYCQQYSKLPRTFGGGTKLEIKRADAAPTVSIFPPSSEQLTSGGASVVCFLNNFYPKDINVKWKIDGSERQNGVLNSWTDQDSKDSTYSMSSTLTLTKDEYERHNSYTCEATHKTSTSPIVKSFNRNEC
With B2, the “LD50 (nM) (ADC)” value is listed as more than 400 nM, the “Rmin (%) (ADC)” value is given as −46.23% and the GI50 is less than 0.061 nM.

B3: AB205-ADL1-D1 (conjugate)
heavy: QVQLQQSGSELMMPGASVKISCKATGYTFSNYWIQRPGHGLEWIGEILPGTGRTIYNEKFKGKATFTADISSNTVQMQLSSLTSEDSAVYYCARRDYYGNFYYAMDYWGQGTSVTVSSAKTTPPSVYPLAPGSAAQTNSMVTLGCLVKGYFPEPVTVTWNSGSLSSGVHTFPAVLQSDLYTLSSSVTVPSSTWPSETVTCNVAHPASSTKVDKKIVPRDCGCKPCICTVPEVSSVFIFPPKPKDVLTITLTPKVTCVVVDISKDDPEVQFSWFVDDVEVHTAQTQPREEQFNSTFRSVSELPIMHQDWLNGKEFKCRVNSAAFPAPIEKTISKTKGRPKAPQVYTIPPPKEQMAKDKVSLTCMITDFFPEDITVEWQWNGQPAENYKNTQPIMDTDGSYFVYSKLNVQKSNWEAGNTFTCSVLHEGLHNHHTEKSLSHSPG
light: DIQMTQSTSSLSASLGDRVTISCSASQGINNYLNWYQQKPDGTVELLIYYTSTLQSGVPSRFSGSGSGTDYSLTISNLEPEDIGTYYCQQYSKLPRTFGGGTKLEIKRADAAPTVSIFPPSSEQLTSGGASVVCFLNNFYPKDINVKWKIDGSERQNGVLNSWTDQDSKDSTYSMSSTLTLTKDEYERHNSYTCEATHKTSTSPIVKSFNRNEC
Regarding B3, the “LD50 (nM) (ADC)” value was 0.656 nM, the “Rmin (%) (ADC)” value is −100.099% and the GI50 was more than 0.061 nM.

B4: AB205-ADL5-D25 (conjugate)
heavy: QVQLQQSGSELMMPGASVKISCKATGYTFSNYWIQRPGHGLEWIGEILPGTGRTIYNEKFKGKATFTADISSNTVQMQLSSLTSEDSAVYYCARRDYYGNFYYAMDYWGQGTSVTVSSAKTTPPSVYPLAPGSAAQTNSMVTLGCLVKGYFPEPVTVTWNSGSLSSGVHTFPAVLQSDLYTLSSSVTVPSSTWPSETVTCNVAHPASSTKVDKKIVPRDCGCKPCICTVPEVSSVFIFPPKPKDVLTITLTPKVTCVVVDISKDDPEVQFSWFVDDVEVHTAQTQPREEQFNSTFRSVSELPIMHQDWLNGKEFKCRVNSAAFPAPIEKTISKTKGRPKAPQVYTIPPPKEQMAKDKVSLTCMITDFFPEDITVEWQWNGQPAENYKNTQPIMDTDGSYFVYSKLNVQKSNWEAGNTFTCSVLHEGLHNHHTEKSLSHSPG
light: DIQMTQSTSSLSASLGDRVTISCSASQGINNYLNWYQQKPDGTVELLIYYTSTLQSGVPSRFSGSGSGTDYSLTISNLEPEDIGTYYCQQYSKLPRTFGGGTKLEIKRADAAPTVSIFPPSSEQLTSGGASVVCFLNNFYPKDINVKWKIDGSERQNGVLNSWTDQDSKDSTYSMSSTLTLTKDEYERHNSYTCEATHKTSTSPIVKSFNRNEC
Regarding B4, the “LD50 (nM) (ADC)” value is 11.669 nM, the “Rmin (%) (ADC)” value is −76.736% and the GI50 was less than 0.061 nM.

B5: AB205-ADL5-D15 (conjugate)
heavy: QVQLQQSGSELMMPGASVKISCKATGYTFSNYWIQRPGHGLEWIGEILPGTGRTIYNEKFKGKATFTADISSNTVQMQLSSLTSEDSAVYYCARRDYYGNFYYAMDYWGQGTSVTVSSAKTTPPSVYPLAPGSAAQTNSMVTLGCLVKGYFPEPVTVTWNSGSLSSGVHTFPAVLQSDLYTLSSSVTVPSSTWPSETVTCNVAHPASSTKVDKKIVPRDCGCKPCICTVPEVSSVFIFPPKPKDVLTITLTPKVTCVVVDISKDDPEVQFSWFVDDVEVHTAQTQPREEQFNSTFRSVSELPIMHQDWLNGKEFKCRVNSAAFPAPIEKTISKTKGRPKAPQVYTIPPPKEQMAKDKVSLTCMITDFFPEDITVEWQWNGQPAENYKNTQPIMDTDGSYFVYSKLNVQKSNWEAGNTFTCSVLHEGLHNHHTEKSLSHSPG
light: DIQMTQSTSSLSASLGDRVTISCSASQGINNYLNWYQQKPDGTVELLIYYTSTLQSGVPSRFSGSGSGTDYSLTISNLEPEDIGTYYCQQYSKLPRTFGGGTKLEIKRADAAPTVSIFPPSSEQLTSGGASVVCFLNNFYPKDINVKWKIDGSERQNGVLNSWTDQDSKDSTYSMSSTLTLTKDEYERHNSYTCEATHKTSTSPIVKSFNRNEC
For the molecule B5, the “LD50 (nM) (ADC)” value was more than 400 nM, the “Rmin (%) (ADC)” value was 2.419% and the GI50 was 0.268 nM.

B6: AB205-ADL10-D1 (conjugate)
heavy: QVQLQQSGSELMMPGASVKISCKATGYTFSNYWIQRPGHGLEWIGEILPGTGRTIYNEKFKGKATFTADISSNTVQMQLSSLTSEDSAVYYCARRDYYGNFYYAMDYWGQGTSVTVSSAKTTPPSVYPLAPGSAAQTNSMVTLGCLVKGYFPEPVTVTWNSGSLSSGVHTFPAVLQSDLYTLSSSVTVPSSTWPSETVTCNVAHPASSTKVDKKIVPRDCGCKPCICTVPEVSSVFIFPPKPKDVLTITLTPKVTCVVVDISKDDPEVQFSWFVDDVEVHTAQTQPREEQFNSTFRSVSELPIMHQDWLNGKEFKCRVNSAAFPAPIEKTISKTKGRPKAPQVYTIPPPKEQMAKDKVSLTCMITDFFPEDITVEWQWNGQPAENYKNTQPIMDTDGSYFVYSKLNVQKSNWEAGNTFTCSVLHEGLHNHHTEKSLSHSPG
light: DIQMTQSTSSLSASLGDRVTISCSASQGINNYLNWYQQKPDGTVELLIYYTSTLQSGVPSRFSGSGSGTDYSLTISNLEPEDIGTYYCQQYSKLPRTFGGGTKLEIKRADAAPTVSIFPPSSEQLTSGGASVVCFLNNFYPKDINVKWKIDGSERQNGVLNSWTDQDSKDSTYSMSSTLTLTKDEYERHNSYTCEATHKTSTSPIVKSFNRNEC
As to B6, the “LD50 (nM) (ADC)” value is more than 400 nM, the “Rmin (%) (ADC)” value is given as −25.099% and the GI50 amounted to 0.08 nM.

B7: AB205-ADL1-D4 (conjugate)
heavy: QVQLQQSGSELMMPGASVKISCKATGYTFSNYWIQRPGHGLEWIGEILPGTGRTIYNEKFKGKATFTADISSNTVQMQLSSLTSEDSAVYYCARRDYYGNFYYAMDYWGQGTSVTVSSAKTTPPSVYPLAPGSAAQTNSMVTLGCLVKGYFPEPVTVTWNSGSLSSGVHTFPAVLQSDLYTLSSSVTVPSSTWPSETVTCNVAHPASSTKVDKKIVPRDCGCKPCICTVPEVSSVFIFPPKPKDVLTITLTPKVTCVVVDISKDDPEVQFSWFVDDVEVHTAQTQPREEQFNSTFRSVSELPIMHQDWLNGKEFKCRVNSAAFPAPIEKTISKTKGRPKAPQVYTIPPPKEQMAKDKVSLTCMITDFFPEDITVEWQWNGQPAENYKNTQPIMDTDGSYFVYSKLNVQKSNWEAGNTFTCSVLHEGLHNHHTEKSLSHSPG
light: DIQMTQSTSSLSASLGDRVTISCSASQGINNYLNWYQQKPDGTVELLIYYTSTLQSGVPSRFSGSGSGTDYSLTISNLEPEDIGTYYCQQYSKLPRTFGGGTKLEIKRADAAPTVSIFPPSSEQLTSGGASVVCFLNNFYPKDINVKWKIDGSERQNGVLNSWTDQDSKDSTYSMSSTLTLTKDEYERHNSYTCEATHKTSTSPIVKSFNRNEC
With B7, the “LD50 (nM) (ADC)” value is listed as 0.535 nM, the “Rmin (%) (ADC)” value is given as −99.306% and the GI50 is less than 0.061 nM.
